Data reported in publication PMC3634753, “A Study of the Mechanism of the Chaperone-like Function of an scFv of Human Creatine Kinase by Computer Simulation” (PLoS ONE, 2013).

What was measured:
Test in all cases: peptide or protein array; 12-mer HCK peptides, each shifted by one residue, synthesized as spots on nitrocellulose membrane; incubated with purified scFv-A4 in MP buffer (30 mM Tris-HCl, pH 7.6, 170 mM NaCl, 6.4 mM KCl, 0.05% Tween 20, 5% sucrose) overnight at 4°C; bound scFv electro-transferred onto PVDF and detected with anti-V5 antibody
Settings in all cases: both partners purified
[1] = target: T1, HCK peptide segment Asn5-Tyr14 (Homo sapiens, UniProt P06732)
T1 construct: human creatine kinase (HCK), segment Asn5-Tyr14 covered by the positive 12-mer spots A2-A6; Each spot held a 12-mer shifted by one residue; also called spots A2-A6; source: synthetic peptide, synthesized on nitrocellulose membrane as spots
T1 chain: NTHNKFKLNY

[2] = target: T2, HCK peptide segment Thr313-Thr322 (Homo sapiens, UniProt P06732)
T2 construct: human creatine kinase (HCK), segment Thr313-Thr322 covered by the positive 12-mer spots K5-K14; Each spot held a 12-mer shifted by one residue; also called spots K5-K14; source: synthetic peptide, synthesized on nitrocellulose membrane as spots
T2 chain: TRLRLQKRGT

[3] = target: T3, HCK peptide segment Glu248-Leu257 (Homo sapiens, UniProt P06732)
T3 construct: human creatine kinase (HCK), segment Glu248-Leu257 covered by the positive 12-mer spots I3-I12; Each spot held a 12-mer shifted by one residue; also called spots I3-I12; source: synthetic peptide, synthesized on nitrocellulose membrane as spots
T3 chain: EVFRRFCVGL

[4] = target: T4, HCK peptide segment Lys265-Asn274 (Homo sapiens, UniProt P06732)
T4 construct: human creatine kinase (HCK), segment Lys265-Asn274 covered by the positive 12-mer spots I22-I29; Each spot held a 12-mer shifted by one residue; also called spots I22-I29; source: synthetic peptide, synthesized on nitrocellulose membrane as spots
T4 chain: KKAGHPFMWN

[5] = target: T5, HCK peptide segment Lys170-Met179 (Homo sapiens, UniProt P06732)
T5 construct: human creatine kinase (HCK), segment Lys170-Met179 covered by the positive 12-mer spots F17-F21; Each spot held a 12-mer shifted by one residue; also called spots F17-F21; source: synthetic peptide, synthesized on nitrocellulose membrane as spots
T5 chain: KGKYYPLKSM

[6] = target: T6, HCK peptide segment Ser129-Lys138 (Homo sapiens, UniProt P06732)
T6 construct: human creatine kinase (HCK), segment Ser129-Lys138 covered by the positive 12-mer spots E3-E13; Each spot held a 12-mer shifted by one residue; also called spots E3-E13; source: synthetic peptide, synthesized on nitrocellulose membrane as spots
T6 chain: SRVRTGRSIK

Measured: binding result

B1: scFv-A4 (scFv, V domains shown)
VH: QVQLVQSGAEVKKPGSSVRVSCKASGGTFSSYAISWVRQAPGQGPEWMGGIIPIFGTANYAQKFQGRVTITADESTSTAYMELSSLRSEDTAVYYCAGSSGWSMSAFDIWGQGTMVTVSS
VL: SSELTQPPSVSVAPGKTARITCGGNNIGSKSVHWYQQKPGQAPVLVIYYDSDRPSGIPERFSGSNSGNTATLTISRVEAGDEADYYCQVWDSSSDHVVFGGGTKLTVL
notes: linker segment GLY112-LYS142; without the linker, the light chain is 100% and the heavy chain 93% identical to the Fab of PDB 2DD8; also called anti-human creatine kinase single chain antibody
binds: all assays above
